By Kd is commonly meant the free concentration of one partner at which half of the binding sites on the other are occupied at equilibrium, for simple one-to-one binding. A word on the koff: it is a measure of how fast the partners let go of each other. Low values mean a long-lived complex, high ones a short-lived complex. By kon is commonly meant the rate constant with which the complex forms. Higher therefore signals fast association. A word on the EC50 (read off the curve): it is the concentration giving half of the maximal effect.

One assay concerns the target T1, HER3 ECD-HRG complex (human, UniProt P21860 20-643).
T1 construct: HER3 ECD preincubated with a 3- to 6-fold molar excess of Heregulin ('open' conformation); biotinylated Her3-ECD in the ribosome display; also called HER3-ECD/HRG1β
Description: SPR Biacore 3000, 37 C. (In general: Surface plasmon resonance follows binding to a sensor surface in real time, without labels.)

The target in another assay is T2, HER4 ECD-HRG complex (human, UniProt Q15303 26-651).
T2 construct: HER4 ECD preincubated with a 5-fold molar excess of Heregulin
T2 sequence 1: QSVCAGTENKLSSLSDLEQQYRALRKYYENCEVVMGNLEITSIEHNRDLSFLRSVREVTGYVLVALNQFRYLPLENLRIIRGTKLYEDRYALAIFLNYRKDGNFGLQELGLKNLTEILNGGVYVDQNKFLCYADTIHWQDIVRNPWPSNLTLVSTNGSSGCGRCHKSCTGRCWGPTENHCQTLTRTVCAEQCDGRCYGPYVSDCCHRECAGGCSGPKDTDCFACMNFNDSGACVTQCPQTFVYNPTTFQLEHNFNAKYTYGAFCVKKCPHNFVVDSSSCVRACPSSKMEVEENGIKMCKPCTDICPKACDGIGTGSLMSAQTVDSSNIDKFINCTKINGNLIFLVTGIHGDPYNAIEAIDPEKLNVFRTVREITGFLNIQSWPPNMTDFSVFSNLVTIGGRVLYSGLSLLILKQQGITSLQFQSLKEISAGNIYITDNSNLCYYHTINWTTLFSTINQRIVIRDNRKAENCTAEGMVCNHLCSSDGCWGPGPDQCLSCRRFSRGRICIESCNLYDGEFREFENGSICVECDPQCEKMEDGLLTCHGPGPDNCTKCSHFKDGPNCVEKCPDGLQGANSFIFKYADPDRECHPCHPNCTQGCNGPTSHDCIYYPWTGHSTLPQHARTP
T2 sequence 2: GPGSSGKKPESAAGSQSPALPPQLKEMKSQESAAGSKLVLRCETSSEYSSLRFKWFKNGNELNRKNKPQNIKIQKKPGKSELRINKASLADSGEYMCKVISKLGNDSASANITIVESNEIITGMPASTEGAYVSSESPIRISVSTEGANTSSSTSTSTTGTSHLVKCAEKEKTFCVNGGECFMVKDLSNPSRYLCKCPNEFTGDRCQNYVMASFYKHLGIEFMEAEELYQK
The assay is described as follows: SPR Biacore 3000, 37 C.

The target in assay [1] is T3, human HER3 Extracellular Domain (ECD) (human, UniProt P21860 20-643).
T3 construct: human recombinant, 68 kDa; 'closed' conformation without ligand; also called Her3 ECD; Her-3 ECD
The assay is described as follows: SPR Biacore 3000, 37 C.

For a further assay, the target named is T4, SBP-tagged HER3-ECD (human, UniProt P21860 20-643).
T4 construct: from cell culture supernatant, held on a streptavidin plate; not shown: SBP tag
Description: plate assay: SBP-tagged HER3-ECD on streptavidin plate, M-05-74 titrated in the presence of 10 nM Europium-labeled Heregulin-beta, time-resolved fluorescence; half-maximal promotion of HRG binding. The protocol:
On the next day the wells were washed three times with washing buffer (PBS+0.05% Tween-20) and blocked with PBS containing 1% BSA for one hour. After another three washes with washing buffer, 40 μl antibody solution (in Delfia Binding Buffer) was added to each well as a 2× stock of the desired final concentrations (10⁻³ to 10³ nM, alternatively 10⁻⁴ to 10² nM). […] The plates were incubated on a shaker at room temperature for two hours. Following three washes with Delfia Wash Buffer, Delfia Enhancement Solution was added and incubated on a shaker for 15 minutes (light protected). Finally, the plates were measured in a Tecan Infinite F200 reader using a time-resolved fluorescence measurement protocol.

Assay [2] addresses T5, human Heregulin fragment (HRG) (human).
T5 construct: 44 kDa homodimeric protein, expressed in FreeStyle 293-F cells; also called Heregulin beta; HRG1β
T5 chain: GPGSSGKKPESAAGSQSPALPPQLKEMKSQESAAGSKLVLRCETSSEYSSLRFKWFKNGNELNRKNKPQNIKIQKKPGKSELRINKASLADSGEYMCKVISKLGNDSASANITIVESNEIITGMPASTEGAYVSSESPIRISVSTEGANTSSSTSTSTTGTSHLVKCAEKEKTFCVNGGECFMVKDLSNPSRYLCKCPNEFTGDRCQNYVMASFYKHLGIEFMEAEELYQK
The assay is described as follows: SPR Biacore T100, antibody captured, 25 C. The protocol:
(§1) A CM5 series sensor was mounted into the system and was normalized in HBS-ET buffer (10 mM HEPES pH 7.4, 150 mM NaCl, 3 mM EDTA, 0.005% w/v Tween 20) according to the manufacturer's instructions. The sample buffer was the system buffer supplemented with 1 mg/ml CMD (Carboxymethyldextran, Sigma #86524). The system operated at 25° C. 6500 RU RAM-Fcγ (relative units of Fcγ-fragment RamIgG, GE Healthcare) were immobilized according to the manufacturer's instructions using EDC/NHS chemistry on all four flow cells. The sensor was deactivated using 1M ethanolamine.
(§2) The binding activity of the respective antibody against the analytes was kinetically tested. Antibodies were captured at 35 nM concentration by a 1 min injection at 5 μl/min. The flow rate was set to 100 μl/min.
(§3) Analytes in solution were injected at different concentration steps of 0 nM, 1.1 nM, 3.7 nM, 11.1 nM, 33.1 nM and 90 nM for 3.5 min. The dissociation was monitored for 15 min. Where possible, kinetic signatures were evaluated according to a Langmuir fit.

For assay [3], the target named is T6, human HER2 Extracellular Domain (ECD) (human, UniProt P04626 23-652).
T6 construct: human recombinant, 69.6 kDa; also called Her2 ECD; HER2_ECD
Description: SPR Biacore T100, antibody captured, 25 C. As for the experimental part: as §1, §2, §3

For assay [4], the target named is T7, human HER4 Extracellular Domain (ECD) (human, UniProt Q15303 26-651).
T7 construct: also called Her4 ECD; HER4-ECD
T7 sequence: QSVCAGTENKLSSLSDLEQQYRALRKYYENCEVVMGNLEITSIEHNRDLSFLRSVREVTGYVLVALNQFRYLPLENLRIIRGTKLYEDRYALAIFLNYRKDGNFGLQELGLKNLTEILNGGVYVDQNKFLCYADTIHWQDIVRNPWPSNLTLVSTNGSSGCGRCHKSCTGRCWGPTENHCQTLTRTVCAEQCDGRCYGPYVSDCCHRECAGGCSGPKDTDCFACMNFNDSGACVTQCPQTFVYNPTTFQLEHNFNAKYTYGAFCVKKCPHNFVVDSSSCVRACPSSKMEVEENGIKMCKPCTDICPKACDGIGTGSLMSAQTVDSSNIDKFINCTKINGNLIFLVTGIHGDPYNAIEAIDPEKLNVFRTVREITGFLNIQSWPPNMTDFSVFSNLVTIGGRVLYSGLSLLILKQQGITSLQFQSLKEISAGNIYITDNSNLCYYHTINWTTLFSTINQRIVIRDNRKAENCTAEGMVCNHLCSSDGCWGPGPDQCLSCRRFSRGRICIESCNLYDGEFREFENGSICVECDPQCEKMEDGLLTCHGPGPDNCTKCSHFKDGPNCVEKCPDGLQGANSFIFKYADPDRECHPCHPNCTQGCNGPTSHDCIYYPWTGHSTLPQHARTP
The assay is described as follows: SPR Biacore T100, antibody captured, 25 C; SPR at 25 C, antibody captured, HER4-ECD without HRG. As for the experimental part:
as §1, §2, §3

Another assay deals with T8, TtSlyD-FKBP-Her3.
T8 construct: N-terminal Met present or not; also called thermo SlyD-Her3; ttSlyD-Her3
T8 chain: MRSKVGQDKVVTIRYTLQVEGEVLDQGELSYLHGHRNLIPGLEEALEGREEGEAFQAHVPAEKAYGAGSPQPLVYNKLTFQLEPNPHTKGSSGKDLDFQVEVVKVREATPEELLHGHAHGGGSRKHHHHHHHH
The assay is described as follows: SPR Biacore 3000, antibody captured, 25 C.

B1: anti-HER3/HER4 antibody M-05-74 (antibody, V domains shown)
VH: QVQLQQSGAELAKPGASVKMSCKTSGYTLTDYWIHWVKQRPGQGLEWIGYINPYTGYTESNQKFKDKATLTADKSSNTAYIQLSSLTSEDSAVYYCARPYYYGDYWGQGTTLTVSS
VL: QIVLTQSPAIMSASPGERVTITCSASSSVSYMHWFQQKPGTSPKLLIYSTSNLASGVPARFSGSGSGTSYSLTISRMEAEDAATYYCQQRSSYPFTFGSGTKLEIK
notes: murine monoclonal IgG from hybridoma (supernatant or purified), bivalent; also called M-074; M-5-74
B1: the dissociation constant Kd was 7 nM with HER3 ECD-HRG complex; 6 nM with HER4 ECD-HRG complex; 4 nM in assay [1]; 150 nM in assay [4]; 27 nM with TtSlyD-FKBP-Her3. The results for the MR (with HER3 ECD-HRG complex; with HER4 ECD-HRG complex; in assay [1]) were 0.7, 0.9 and 0.6, respectively. For the same molecule, the koff was determined as 0.00057 s⁻¹ in the assay with HER3 ECD-HRG complex, 0.0033 s⁻¹ with HER4 ECD-HRG complex, 8.1e-05 s⁻¹ in assay [1] and 0.001 s⁻¹ in assay [4]. The kon was found to be 79000 M⁻¹ s⁻¹ in the assay with HER3 ECD-HRG complex, 580000 M⁻¹ s⁻¹ with HER4 ECD-HRG complex, 21000 M⁻¹ s⁻¹ in assay [1] and 6700 M⁻¹ s⁻¹ in assay [4]. The results for the t/2diss (in the assay with HER3 ECD-HRG complex; with HER4 ECD-HRG complex; in assay [1]) were 20 min, 4 min and 144 min, respectively. Besides, in the assay with SBP-tagged HER3-ECD, the 50% effective concentration (EC50 (read off the curve)) is ~0.3 nM. The binding result in assay [2] and in assay [3] was “no binding (tested: up to 90 nM)” in each case.

Source of the values: patent publication US20170233490A1 (Hoffmann-La Roche, published 2017).
